Reference: US20060263354A1 (Amgen, published 2006)

Columns and labels:
peptide 1 = target: T1, peptide 1 (human); test: peptide ELISA
T1 construct: also called peptide 1 of mature GDF8
T1 peptide: DFGLDCDEHSTESRCCRY
Description: (§1) Eleven peptides were generated from mature GDF8 to test and localize antibody binding (See FIG. 6). Peptide ELISA was done on glutaraldehyde coated ELISA plates and on uncoated ELISA plates (NUNC-Immuno™ plate MaxiSorp™ surface, Nalge Nunc International, Cat. No. 439454). Glutaraldehyde coated plates were prepared by mixing 250 μl glutaraldehyde (50% w/v) with 50 ml deionized water and adding 200 μl of the solution into each well. Plates were incubated for at least 1 hour at room temperature. The glutaraldehyde was shaken out of the plate and smashed upside down on paper towels to remove all the liquid prior to use.
(§2) ELISA plates were coated with peptide at 1.0 μg/well/50 μl (in Sodium bicarbonate buffer, pH 9.6) for at least 4 hours, and then blocked with 200 μl blocker (1%BSA, 1%Ethanolamine pH 7.4) for minimum 4 hours. Plates were washed with PBST three times with 200 μl/well. 50 μl antibody (1 μg/ml in PBST, Phosphate-buffered saline (PBS) with 0.05% Tween-20) sample was added to the wells for 1 hour. Plates were then washed with PBST three times. 50 μl anti-human IgG-horseradish peroxidase(HRP) (Pierce, Cat# 31420) diluted in PBST is added for another hour. The wells were washed again with TBST three times, and then with deionized water twice. 50 μl ABTS (MOSS) was added for 5-20 minutes, and the signal was detected at 405 nm in a colormetric plate reader.

peptide 5 = target: T2, peptide 5 (human); test: peptide ELISA
T2 construct: also called peptide 5 of mature GDF8
T2 peptide: CCTPTKMSPINMLYFNGK
Description: as §1, §2

[1] = target: T3, mature GDF8 from mouse serum (mouse, UniProt O08689 268-376); test: immunoprecipitation from mouse serum, western blot
T3 construct: mature; also called mouse serum mature GDF8
T3 sequence (looked up): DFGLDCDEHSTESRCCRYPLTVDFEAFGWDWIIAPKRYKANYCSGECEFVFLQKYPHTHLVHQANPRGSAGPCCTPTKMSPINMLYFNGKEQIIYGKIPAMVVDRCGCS
Description: An immunoprecipitation study was conducted to test the binding of myostatin antibodies to mature GDF8 from mouse serum. […] mouse serum (Rockland, Cat ## D208-00) was incubated with 20 μg myostatin antibodies for 16 hours at 4° C. Protein A Dynalbeads were added and incubated for 90 minutes at 4° C. The immunoprecipitate was collected using MPC-E magnetic concentrator (Dynal, Norway), and washed four times with PBS. […] Western blotting was performed using Odyssey Infrared imaging system (Li-Cor). Mature GDF8 was detected using biotinylated goat anti-myostatin antibody (R&D systems, Cat# BAF788). […] It is known that mature GDF8 in the serum binds to many inhibitory proteins such as propeptide, FLRG, and GASAP1 (Hill et al. (2002) The myostatin propeptide and the follistatin-related gene are inhibitory binding proteins of myostatin in normal serum. J. Biol. Chem. 277: 40735-40741. Hill et al. (2003) Regulation of myostatin in vivo by growth and differentiation factor-associated serum protein-1: a novel protein with protease inhibitor and follistatin domains. Mol. Endocrin. 17(6): 1144-1154). […] Such non-competitive neutralizing antibodies would be advantageous in vivo.

mature GDF8 = target: T4, mature GDF8 (human, UniProt O14793 267-375); test: immunoprecipitation from 293T conditioned medium, western blot
T4 construct: also called myostatin; mstn
T4 sequence: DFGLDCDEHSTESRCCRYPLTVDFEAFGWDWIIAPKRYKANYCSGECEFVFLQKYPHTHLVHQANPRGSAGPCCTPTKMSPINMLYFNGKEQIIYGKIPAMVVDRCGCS
Description: An immunoprecipitation study was conducted to test the binding of myostatin antibodies to mature GDF8 and mature GDF8/propeptide complex. 293T cells were transfected with GDF-8 expression construct. Conditioned media was harvested 7 days after transfection, which contained mature GDF8 and latent complex. 100 μl conditioned media was incubated with 10 μg myostatin antibodies for 16 hours at 4° C. Protein A Dynabeads (Dynal, Norway) were added and incubated for 90 minutes at 4° C. The immunoprecipitate was collected using MPC-E magnetic concentrator (Dynal, Norway), and washed four times with PBS. […] Western blotting was performed using Odyssey infrared imaging system (Li-Cor). Mature GDF8 and unprocessed GDF8 were detected using goat anti-myostatin antibody (R&D systems, Cat# AF788). Rabbit anti-propeptide polyclonal antibody (made in-house) was used to detect both propeptide and unprocessed GDF8. […] No other antibodies immunoprecipitated mature GDF8, propeptide, or unprocessed GDF8. Lane 4 is the 1/10 medium loading control, and lane 7 is immunoprecipitation control with medium only.

Measured: binding result

B1: 2-112-1 (antibody, V domains shown)
VH: EVQLLESGGGLIQPGGSLRLSCAASGFTFSSFAMSWVRQAPGKGLEWVSTISGSGGYTFYADSVKGRFTISRDNSKNTLYLQMNSLRAEDTAVYYCAKDGRYNWNYGAFDIWGQGTMVTVSS
VL: EIVMTQSPATLSVSPGERATLSCRASQSVSSNLAWYQQKPGQAPRLLIYGASTRATGFPARFSGSGSGTEFTLTISSLQSEDFAIYYCQQYNNWPLTFGGGTKVEIKR
notes: Full-length deduced chains
binds: all assays above

B2: 2-43-1 (antibody, V domains shown)
VH: EVQLLESGGGLVQPGGSLRLSCAASGFTFSSYAMSWVRQAPGKGLEWVSAISGSGGSTFYADSVTGRFTISRDNSKNTLFLQLNSLRAEDTAVYHCAKDGRFNWNYGASDIWGQGTMVTVSS
VL: EIVMTQSPATLSVSPGERATLSCRTSQSVSSNLAWYQQKPGQAPRLLIYGASTRATGIPARFSGSGSGTEFTLTISSLQSEDFAVYYCQQYNNWPLTFGGGTKVEIKR
notes: Full-length deduced chains
binds: all assays above

B3: 2-177-1 (antibody, V domains shown)
VH: EVQLLESGGGLIQPGGSLRLSCAASGFTFSSFAMSWVRQAPGKGLEWVSTISGSGGSTYYADFVKGRFTISRDNSKNTLYLQMNSLRAEDTAVYYCAKDGRYNWNYGAFDIWGQGTMVTVSS
VL: EIVMTQSPATLSVSPGERATLSCRASQSVRSNLAWFQQKPGQAPRLLIYGASTRATGIPARFSGSGSGTEFTLTISSLQSEDFAVYYCQQYNNWPLTFGGGTKVEIKR
notes: Full-length deduced chains
binds: all assays above
